Reference: US20180251563A1 (SUBDOMAIN, published 2018)
Changes are numbered by the printed parent chain.

T1: CD123 (target of Example 19) (Homo sapiens (Human), UniProt P26951 19-305, limits assumed)
T1 sequence: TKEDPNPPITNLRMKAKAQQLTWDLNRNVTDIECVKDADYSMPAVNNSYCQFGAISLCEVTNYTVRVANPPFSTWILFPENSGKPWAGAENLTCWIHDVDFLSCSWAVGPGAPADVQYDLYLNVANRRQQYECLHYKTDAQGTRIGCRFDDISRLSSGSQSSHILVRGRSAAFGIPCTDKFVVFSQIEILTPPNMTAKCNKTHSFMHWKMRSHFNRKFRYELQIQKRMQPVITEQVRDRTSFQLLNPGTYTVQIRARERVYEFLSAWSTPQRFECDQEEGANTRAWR

B1: SEQ ID NO 73 (designed binder)
chain: MGSWYDFKEDLADIKWMLEALGGSEAELAEFENVIAYFENDLQEYKGKGNPEVEALRKEAAAIRDELQAYRHN
B2: SEQ ID NO 80 (designed binder)
chain: MGSWQIFKGELAYIKQYLEALGGSEAELAFFEFDIAEFEEDLQYYKGKGNPEVEALRKEAAAIRDELQAYRHN
B3: SEQ ID NO 72 (designed binder)
chain: MGSWEFFKEVLAEIKYDLEALGGSEAELAWFETDIAGFEIDLQVYKGKGNPEVEALRKEAAAIRDELQAYRHN
B4: SEQ ID NO 84 (designed binder)
chain: B3 chain with E5Y, F6M, V10E, E13D, Y16W, D17Y, T33D, I40W, V44A
B5: SEQ ID NO 70 (designed binder)
chain: MGSWEWFKSDLASIKWELEALGGSEAELAWFEHDIAEFEEDLQWYKGKGNPEVEALRKEAAAIRDELQAYRHN
B6: SEQ ID NO 76 (designed binder)
chain: B5 chain with E5S, S9E, S13D, W16F, H33L, E37D, E40Q, D41A, W44Q
B7: SEQ ID NO 89 (designed binder)
chain: B5 chain with E5S, S9E, W16A, E17V, W30F, H33S, E40Q, D41E, W44Y
B8: SEQ ID NO 77 (designed binder)
chain: B5 chain with E5W, W6E, S9E, S13E, E17F, E37K, E40F, D41E, W44Y
B9: SEQ ID NO 82 (designed binder)
chain: MGSWYYFKDELADIKWDLEALGGSEAELAWFEMLIAQFELDLQWYKGKGNPEVEALRKEAAAIRDELQAYRHN
B10: SEQ ID NO 90 (designed binder)
chain: MGSWILFKDDLAWIKETLEALGGSEAELAFFEDNIADFEEQLQGYKGKGNPEVEALRKEAAAIRDELQAYRHN
B11: SEQ ID NO 91 (designed binder)
chain: B10 chain with I5Q, L6W, W13Y, F30L, N34M, E40F, Q41E, G44W
B12: SEQ ID NO 68 (designed binder)
chain: MGSWWEFTDRLDAIFDRLWALGGSEAELAAFEESIAIFEQDLQYYKGKGNPEVEALEYEANAIQYELEAYRHN
B13: SEQ ID NO 93 (designed binder)
chain: MGSWSEFWQRLEAIEDRLWALGGSEAELAAFEKEIAAFESELQAYKGKGNPEVEWLRENAAMIRDELQAYRHN
B14: SEQ ID NO 66 (designed binder)
chain: MGSWEEFDKRLDAITRRLMALGGSEAELAEFESTIAWFEWDLQEYKGKGNPEVEALDWEAYAIDYELGAYRHN
B15: SEQ ID NO 67 (designed binder)
chain: MGSWSEFVDRLDAIFDRLWALGGSEAELAWFEDTIAHFEWNLQEYKGKGNPEVEALNGEADAITDELHAYRHN
B16: SEQ ID NO 79 (designed binder)
chain: MGSWFMFKEELADIKDWLEALGGSEAELASFESYIAWFEQDLQWYKGKGNPEVEALRKEAAAIRDELQAYRHN
B17: SEQ ID NO 69 (designed binder)
chain: MGSWWEFTDRLEAIEDRLWALGGSEAELAHFEDSIAQFEQELQWYKGKGNPEVEALADEADAIESELHAYRHN
B18: SEQ ID NO 83 (designed binder)
chain: MGSWFNFKEELAVIKFQLEALGGSEAELAFFEWVIADFEDDLQEYKGKGNPEVEALRKEAAAIRDELQAYRHN
B19: SEQ ID NO 88 (designed binder)
chain: MGSWFWFKEDLAFIKEDLEALGGSEAELAWFEDGIAFFEWDLQDYKGKGNPEVEALRKEAAAIRDELQAYRHN
B20: SEQ ID NO 92 (designed binder)
chain: MGSWEEFHSRLDAIDDRLWALGGSEAELAAFEKEIAAFESELQAYKGKGNPEVEWLRWEAATIRETLQAYRHN
B21: SEQ ID NO 78 (designed binder)
chain: MGSWDEFKEDLAHIKTDLEALGGSEAELALFEDEIADFEMYLQHYKGKGNPEVEALRKEAAAIRDELQAYRHN
B22: SEQ ID NO 75 (designed binder)
chain: MGSWVTFKDELADIKDFLEALGGSEAELAFFEVDIAEFEAELQFYKGKGNPEVEALRKEAAAIRDELQAYRHN
B23: SEQ ID NO 86 (designed binder)
chain: B22 chain with V5Y, T6V, D13E, D16Q, F30W, V33D, A40T, E41Q, F44H
B24: SEQ ID NO 85 (designed binder)
chain: MGSWHVFKTELADIKFYLEALGGSEAELAMFELWIAEFEHELQDYKGKGNPEVEALRKEAAAIRDELQAYRHN
B25: SEQ ID NO 87 (designed binder)
chain: MGSWTEFKGELAEIKWILEALGGSEAELAFFEDEIAAFEWDLQKYKGKGNPEVEALRKEAAAIRDELQAYRHN
B26: SEQ ID NO 71 (designed binder)
chain: MGSWDHFKNDLAWIKKHLEALGGSEAELAEFEAVIAYFELYLQGYKGKGNPEVEALRKEAAAIRDELQAYRHN
B27: SEQ ID NO 74 (designed binder)
chain: MGSWSFFKDDLAEIKYFLEALGGSEAELAMFEQTIAEFEYDLQDYKGKGNPEVEALRKEAAAIRDELQAYRHN
B28: SEQ ID NO 81 (designed binder)
chain: MGSWYIFKEDLAEIKEELEALGGSEAELAYFEEEIALFEMELQWYKGKGNPEVEALRKEAAAIRDELQAYRHN
B29: SEQ ID NO 96 (designed binder)
chain: MGSWIEFNMRLDAIYERLVALGGSEAELAAFEKEIAAFESELQAYKGKGNPEVEWLRKVAANIRLELQAYRHN
B30: SEQ ID NO 94 (designed binder)
chain: B29 chain with I5T, N8A, M9W, E16D, V19L, K58H, L65R
B31: SEQ ID NO 98 (designed binder)
chain: B29 chain with I5V, M9I, V19Y, W55K, K58H, V59W, N62S, L65R
B32: SEQ ID NO 103 (designed binder)
chain: B29 chain with N8E, M9V, E16N, V19A, W55R, K58R, V59Y, L65H
B33: SEQ ID NO 97 (designed binder)
chain: B29 chain with I5S, V19T, K58H, V59S, N62R

Biological target: T1, CD123 (target of Example 19)
Assay: library selection; assay not described

Binding result, binds:
B1, B2, B3, B4, B5, B6, B7, B8, B9, B10, B11, B12, B13, B14, B15, B16, B17, B18, B19, B20, B21, B22, B23, B24, B25, B26, B27, B28, B29, B30, B31, B32, B33
